The values that follow are results of earlier work, collected in PMC10361719.

The data set addresses Gag (Human immunodeficiency virus 1) (UniProt O93182).

Gag, sequence (O93182 2-500): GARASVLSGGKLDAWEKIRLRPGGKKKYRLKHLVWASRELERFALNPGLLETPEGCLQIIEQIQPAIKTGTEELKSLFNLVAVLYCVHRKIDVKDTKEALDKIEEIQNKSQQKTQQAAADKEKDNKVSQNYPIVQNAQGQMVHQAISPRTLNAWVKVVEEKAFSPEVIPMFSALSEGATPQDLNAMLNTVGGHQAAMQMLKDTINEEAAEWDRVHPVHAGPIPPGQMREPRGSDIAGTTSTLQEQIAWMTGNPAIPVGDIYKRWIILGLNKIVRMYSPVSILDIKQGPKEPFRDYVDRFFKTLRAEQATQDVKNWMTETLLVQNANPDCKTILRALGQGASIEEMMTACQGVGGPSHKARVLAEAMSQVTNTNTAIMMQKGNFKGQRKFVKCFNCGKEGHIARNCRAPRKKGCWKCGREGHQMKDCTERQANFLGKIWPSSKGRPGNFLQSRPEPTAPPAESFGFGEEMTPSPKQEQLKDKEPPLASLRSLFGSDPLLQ

With Gag (from UniProt O93182), the Kd is 5.5 µM.

What is called Kd is the constant that tells how readily two partners part at equilibrium.
